According to paper PMC9213791, “Small Molecule RPI-194 Stabilizes Activated Troponin to Increase the Calcium Sensitivity of Striated Muscle Contraction” (Frontiers in Physiology, 2022):

Key:
[1] = target: T1, recombinant human aCys-cNTnC (C35S, C84S double mutant), N-terminal regulatory domain of cardiac troponin C (human); test: NMR titration; ssTnI peptide (10 mM stock in d6-DMSO) titrated to 0.5-30 equivalents into 15N-labeled cNTnC (115 µM); 100 mM KCl, 10 mM imidazole, pH ~6.7, 30°C; 2D 1H,15N HSQC; KD from 2D lineshape analysis (TITAN), two-state model; no RPI-194; conditions: both partners purified
T1 construct: human cardiac/slow skeletal troponin C, N-terminal regulatory domain (cNTnC); Uniformly 15N-labeled for NMR; also called cNTnC domain; isolated cNTnC domain; source: E. coli, expressed and purified as previously described (Cai et al., 2016), lyophilized; 15N-labeled

[2] = target: T1, recombinant human aCys-cNTnC (C35S, …); test: NMR titration; ssTnI peptide titrated to 0.1-3 equivalents into 15N-labeled cNTnC·RPI-194 complex (115 µM, 1:1 protein and drug); 100 mM KCl, 10 mM imidazole, pH ~6.7, 30°C; 2D 1H,15N HSQC; KD from TITAN, two-state model; conditions: both partners purified

B1: slow skeletal troponin I switch peptide (ssTnI) (peptide)
chain: RVSADAMLRALLGSKHK
modifications: synthetic peptide; termini not stated. Limits not printed: taken as the ssTnI equivalent (offset -30) of the conventional cTnI switch peptide 147-163, because the paper compares it with the …
What does the source list for B1?
Kd [1]: 652 µM; Kd [2]: 22 µM
